Reference: publication PMC9302186, “Defining variant-resistant epitopes targeted by SARS-CoV-2 antibodies: A global consortium study” (Science (New York, N.y.), 2021)

Molecular target: T1, SARS-CoV-2 spike trimer (as imaged by NS-EM) (SARS-CoV-2, ancestral (Wuhan-Hu-1, …, UniProt P0DTC2))
T1 construct: also called spike trimers; spike protein
Assay: negative-stain electron microscopy
Settings: both partners purified

B1: CoVIC-259 (antibody, V domains shown)
VH: EVQLVESGGGVVQPGRSLRLSCAASGFTFSSYAMHWVRQAPGKGLEWVAVLSYDGSNKYNADSVKGRFTISRDNSKNTLYLQMNSLRVEDTAMYYCARDGVSVTMVRGVIGPLCDYWGQGTLVTVSS
VL: not shown
notes: also called RBD-1 community representative
B1: binds.
